Measurements published in PMC9570017, “Unorthodox PCNA Binding by Chromatin Assembly Factor 1” (International Journal of Molecular Sciences, 2022).
Entries after “also recorded” stand apart in the source; their conditions may differ.

Key:
PCNA = assay: Crystal model of p150 PIP bound to PCNA; format: binding, human; settings: synthetic 20-amino acid peptide, crystals at pH 5, resolution 46.2–2.4 Å; only RFF residues modelled; model could not be refined further
Protocol: In order to better understand the molecular basis of CAF-1 binding to PCNA, we determined the crystal model of a complex between a synthetic peptide encompassing the p150 PIP and PCNA. The crystal model was solved using molecular replacement from a previously published PCNA structure (Table 1 and Materials and Methods). PCNA samples were incubated with a 20-amino acid PIP derived from CAF-1 p150. The PIP used for crystallization, […] (PIP residues in italics), spanned the entire PIP region.
A CAF-1 p150 synthetic peptide with the sequence […] was synthesized at the University of Cambridge in-house protein and nucleic acid facility (PNAC). For use in crystallization trials, the synthetic peptide was dissolved in demineralized water to a concentration of 23 mM. Initial crystallization conditions were further refined and optimized with the help of the PACT suite (Qiagen) and Additive Screen (Hampton Research), which contain multiple reagent libraries that enhance the solubility and crystallization of biological macromolecules. […]
The eluate was subsequently purified with a Superdex™ 200 gel filtration column (GE Healthcare) in gel filtration buffer 20 mM Tris pH 7.5, 150 mM NaCl, 1 mM DTT. The fractions corresponding to PCNA homotrimer were pooled, concentrated with an amicon concentrator with 3 kDa MWCO, quantified using absorbance at A280 nm, and stored at - […]

[1] = tested on: DNA replication-coupled nucleosome assembly (S100 extract from human HEK-293 cells); assay: Replication-dependent nucleosome assembly assay (SV40 DNA replication, S100 extract); format: biochemical; settings: increasing amounts of in vitro translated p150 (rCAF-1: positive control), 45 min + 45 min at 37 °C, autoradiography
Excerpt: We next sought to compare the activities of CAF-1 p150, wild-type, and the R426D mutant in a replication-coupled chromatin assembly assay. As a first step to performing this assay, we expressed CAF-1 p150 wild-type and the R426D mutant in a rabbit reticulocyte lysate coupled transcription and translation system and labelled the proteins with [^35S]-methionine. […] In the replication coupled chromatin assembly system, an S100 extract from cultured human HEK-293 cells provides all the cellular DNA replication enzymes and histones but lacks CAF-1 p150 [37]. To this extract, a plasmid containing an SV40 origin of replication and the viral replication protein, SV40 large T antigen, were added to support SV40 DNA replication. Radiolabeled dATP was also added to visualize the replication products by autoradiography.
In contrast, when the recombinant CAF1 protein (p150, p60, p48) or the p150 subunit alone are added, they bind to histones in the S100 extract and promote nucleosome assembly coupled with DNA replication. DNA topoisomerase enzyme I, which is present in the S100 extract (and further supplemented in these assays to ensure sufficient levels), removes the positive supercoiling in the linker DNA that connects nucleosomes, leaving negative supercoiling due to DNA wrapping around histone octamers (evident upon subsequent removal of the histones and electrophoresis).
Replication reactions were assembled as previously reported. […]
The reactions were extracted using phenol, chloroform, and isoamyl alcohol (25:24:1) and the DNA was then precipitated with sodium acetate and ethanol. […] The products of replication were analyzed using a native 1.25% agarose gel in 1X TAE buffer with 1 mM MgCl2, without the addition of ethidium bromide. […] The gel was subsequently imaged and analyzed using a phosphor imager (Typhoon FLA 7000) to visualize the replicated DNA.

Row | Molecule | binding mode to PCNA in crystal model (PCNA) | supercoiling of replicated DNA / nucleosome assembly [1] | supercoiling of replicated DNA / nucleosome assembly ([1]; listed as CAF-1 R426D mutant)
1 | IKAEKAEITRFFQKPKTPQA [CAF-1 p150 PIP] | one CAF-1 p150 PIP bound to each PCNA monomer; also recorded: forms a cation-π interaction with Tyr 250 of PCNA | – | –
2 | R426D mutant: full-length mouse CAF-1 p150 with R426D, expressed in rabbit reticulocyte lysate (protein, [35S]-methionine labelled) MLEEPEAATRTAAAVDCKDRPGFPVKRLIQARLPFKRLNLVPKEKVEEDTSPKAAVESKVPDLQLSLGTFESQCHTGSHVGLSTKLVGGQGPIDSFLRATIKPVPSVVIIDLTENCSDIPDSPEGHSELSPDTAGVVTTVEGAAKQQEHSAAELCLLETPSDITCHMEEEPGSPGDPKRTGDCQAGSLQSCPELTPGSRTCPTKELSSWSKAGDLLFIEKVPVVVLEDILATKPSIASLPMMSLDRSVTSESEILESCPEDDSILSHSSTNSSSPTSSPEGPSTPPEHRGGRSSPSTPACRVAKNFVKGSTEKGRSKLHRDREQQREEKEKLREEIRRAKEEARKKKEEEKELKEKERREKREKDEKEKAEKQRLKEEKRKERQEALEAKLEEKRKKEEEKRLREEEKRLREEEKRIKAEKAEITDFFQKPKTPQAPKTLAGSCGKFAPFEIKEHMVLAPRCRAALDQDLCDQLDQLLQQQSVASTFLSDLKSRLPLRSGPTRVCGHDTDIMNRDVVIVESSKVDGVSERKKFGRMKLLQFSENHRPAYWGTWNKKTAIIRPRNPWAQDKDLLDYEVDSDDEWEEEEPGESLSHSEGDEDDDVGEDEDEDDGFFVPHGYLSEDEGVTEECADPENHKVHQKLKAKEWDELLAKGKRFRVLQPVHVGCVWASEAANCTSSDLKLLQQFTACLLDVASPDEPEPGASRREKRDQHILAQLLPLLHGNVNGSKVIIHEFQEQCRRGLLTLPSPTPHLQMPNLEDAVAVPSKARLKRLISENSAYEKRPNFRMCWYVHPEVLKSFGQECLPVPCQWTYITTMPSAPREDSGSASTEGPGQSTPMLLKRKPAATMCITQFMKKRRYDGQVGSGDMDGFQADTEEDEEDDTDCMIIDVPDVGSDVSEAPIPAPTLCK | – | much less supercoiling was observed | deficient in nucleosome assembly
